{"source": "patent US20050074863A1", "about": "“T-cell epitodes in carboxypeptidase g2” (priority 2001, published 2005)", "system": "human T-cells", "assay": "Human PBMC in vitro proliferation assay with wild-type or modified CPG2 protein", "assay_type": "cell-based", "procedure": "A modified protein was prepared according to the method of examples 3-5. The modified protein contained multiple substitutions from the wild-type sequence. Positive control protein was wild-type CPG2.\nFor T cell proliferation assays 4×10^6 PBMC (per well) from healthy donors were incubated with unmodified and modified […] in 2 ml bulk cultures (in 24 well plates). Each donor culture was treated with modified and unmodified CPG2 at 5 and 50 μg/ml. In addition an untreated control bulk culture was maintained enabling stimulation indexes to be determined. At days 5, 6, 7 and 8 cells for each bulk culture were gently agitated and 50 μl samples removed in triplicate for determination of the proliferation index. The 50 μl sample aliquots were each transferred to 3 wells of a U-bottom 96 well plate. Fresh AIM V media (130 μl) was added to each of the 96 wells. Cells were pulsed (for 18-21 hours) with 1 μCi [^3H]Thymidine per well diluted in a total volume of 20 ul AIM V media. The total volume for each culture was 200 μl. CPM values were collected using a beta-plate reader and the stimulation index for each time point determined as per Example 2.\nThe SI was plotted for each time point and treatment.", "data": [{"molecule": "carboxypeptidase G2 (protein, UniProt P06621 23-415, looked up, 6xHis tag, bacterial enzyme from Pseudomonas sp. strain RS-16, 390 residues, recombinant 6xHis tagged; positive control protein) Carboxypeptidase G2: ALAQKRDNVLFQAATDEQPAVIKTLEKLVNIETGTGDAEGIAAAGNFLEAELKNLGFTVTRSKSAGLVVGDNIVGKIKGRGGKNLLLMSHMDTVYLKGILAKAPFRVEGDKAYGPGIADDKGGNAVILHTLKLLKEYGVRDYGTITVLFNTDEEKGSFGSRDLIQEEAKLADYVLSFEPTSAGDEKLSLGTSGIAYVQVNITGKASHAGAAPELGVNALVEASDLVLRTMNIDDKAKNLRFNWTIAKAGNVSNIIPASATLNADVRYARNEDFDAAMKTLEERAQQKKLPEADVKVIVTRGRPAFNAGEGGKKLVDKAVAYYKEAGGTLGVEERTGGGTDAAYAALSGKPVIESLGLPGFGYHSDKAEYVDISAIPRRLYMAARLIMDLGAGK", "values": [{"measurement": "proliferative response (stimulation index) to whole protein", "setting": "responsive donors #1 and #16, 5 and 50 μg/ml, days 5-8, 3H-thymidine", "result": "significant proliferative response"}, {"measurement": "time of peak proliferative response", "setting": "responsive donors, 5 and 50 μg/ml", "result": 7, "unit": "days"}]}]}
